Source: patent US20210063414A1, “METHODS FOR PREVENTING AND/OR TREATING BONE LOSS CONDITIONS BY MODULATING IRISIN” (Dana-Farber Cancer Institute, Inc., priority 2018, published 2021)

Assays:
Assay in all cases: Crosslinking/co-immunoprecipitation/mass spectrometry (TMT quantitative proteomics) to identify irisin receptors
Assay type in all cases: binding
[1] = target: T1, MLO-Y4 cell surface proteins (Mus musculus, UniProt C0HKE1); settings: co-precipitated protein Hist1h2ab (H2A1_MOUSE)
T1 construct: endogenous in cells; host or cells: MLO-Y4
Description: (§1) MLO-Y4 cells were seeded on 30×150 mm type-I collagen coated dishes as described in cell culture experiment. At 60% cell density, medium was switched to FreeStyle™ 293 Expression medium. After 4 hours incubation, the cells were chilled on ice for 10 minutes, followed by treatment of 10 nM his-tag irisin or his-tag adipsin for 20 minutes. The cells were then incubated with 1.5 mM DTSSP for 30 minutes on ice to do cross-linking, after washing with 15 ml cold PBS twice. The cross-linking was quenched by addition of a final concentration of 20 mM Tris-pH 7.5. The cells were then harvested and homogenized in 1 ml RIPA buffer containing proteaseinhibitor cocktailand phosphatase-inhibitor cocktail. Whole-cell lysates were homogenized by 10 times passages through a 22G needle fitted to a 3 ml syringe. Homogenized samples were rotated gently in cold room for 20 minutes followed by 15,000×g centrifugation for 10 minutes. After addition of a final concentration of 10 mM imidazole, supernatants were incubated with 100 μl Ni-NTA agarose for 1 hour. After centrifugation at 500×g for 1 minute, the supernatants were aspirated and 1 ml cold RIPA buffer containing 10 mM imidazole were added to the agarose. After 10 minutes rotation in cold room, the supernatants were aspirated and 1 ml cold RIPA buffer containing 30 mM imidazole were added to the agarose. After repeating the washing 3 times, 0.8 ml RIPA buffer containing 250 mM imidazole was added and the agarose was gently rotated in a cold room for 20 minutes. After centrifugation at 1000×g for 2 minutes, the supernatants were transferred to 1.5 ml tube and incubated with 100 μl 0.2% sodium deoxycholate and 100 μl 10% trichloroacetic acid in ice for 1 hour. After centrifugation at 12,000×g for 10 minutes at 4° C., the supernatants were removed and 1 ml cold acetone was added to the pellets followed by vortexing for 10 seconds. After one more washing with cold acetone, the pellets were dried at 37° C., and 39 μl PBS and 13 μl 4×NuPAGE LDS were added to the pellets with a final concentration of 5 mM DTT. Solubilized proteins were incubated at 65° C. for 20 minutes followed by incubation with a final concentration of 14 mM iodoacetamide for 45 minutes in the dark. 38 μl samples were loaded to 4-12% gradient SDS-PAGE for separation followed by Coomassie Blue staining. The gels were submitted to quantitative proteomics.
(§2) For in-gel digestions, gels were stained with Coomassie Blue and were excised into 8 equal segments for control and irisin lanes. Gel pieces were destained and dehydrated with 100% acetonitrile, vacuumed dried, and digested in 25 mM HEPES (pH 8.5) with 500 ng sequencing grade trypsin (Promega) and incubated for an overnight at 37° C. (Shevchenko et al. (1996) Anal. Chem. 68:850-858). Digests were treated with 1% formic acid and purified using C18 Stage-Tips as previously described (Rappsilber et al. (2007) Nat. Protoc. 2:1896-1906). Peptides were eluted with 70% acetonitrile and 1% formic acid, then dried using a speedvac. Isobaric labeling of digested peptides was accomplished using 6-plex tandem mass tag (TMT) reagents (Thermo Fisher Scientific, Rockford, Ill.). Reagents, 5.0 mg, were dissolved in 252 μl acetonitrile (ACN) and 5 μl of the solution was added to the digested peptides dissolved in 25 μl of 200 mM HEPES, pH 8.5. After 1 hour at room temperature, the reaction was quenched by adding 1 μl of 5% hydroxylamine. Labeled peptides were combined and acidified prior to C18 Stage-Tips desalting.
(§3) All LC-MS/MS experiments were performed on an Orbitrap Fusion™ Lumos mass spectrometer (Thermo Fisher Scientific, San Jose, Calif., USA) coupled with a Proxeon EASY-nLC™ 1200 LC pump (Thermo Fisher Scientific). Peptides were separated on a 100 μm inner diameter microcapillary column packed with 35 cm of Accucore™ C18 resin (1.8 μm, 100 Å, Thermo Fisher Scientific). […]

[2] = target: T2, MLO-Y4 cell surface proteins (Mus musculus, UniProt G3X9C2); settings: co-precipitated protein Nccrp1 (FBX50_MOUSE)
T2 construct: endogenous in cells; host or cells: MLO-Y4
T2 sequence (G3X9C2 1-266): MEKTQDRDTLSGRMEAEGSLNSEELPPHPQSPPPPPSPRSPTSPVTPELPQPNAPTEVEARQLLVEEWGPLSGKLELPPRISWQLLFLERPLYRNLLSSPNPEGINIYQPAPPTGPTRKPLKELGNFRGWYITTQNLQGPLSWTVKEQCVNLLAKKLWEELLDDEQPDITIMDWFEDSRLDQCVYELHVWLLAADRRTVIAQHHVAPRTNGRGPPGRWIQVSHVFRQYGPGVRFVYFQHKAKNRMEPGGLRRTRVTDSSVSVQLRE
Description: as §1, §2, §3

[3] = target: T3, MLO-Y4 cell surface proteins (Mus musculus, UniProt O70404); settings: co-precipitated protein Vamp8 (VAMP8_MOUSE)
T3 construct: endogenous in cells; host or cells: MLO-Y4
T3 sequence (O70404 1-101): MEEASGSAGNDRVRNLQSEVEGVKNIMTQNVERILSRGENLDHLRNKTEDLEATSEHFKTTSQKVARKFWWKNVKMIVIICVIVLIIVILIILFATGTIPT
Description: as §1, §2, §3

[4] = target: T4, MLO-Y4 cell surface proteins (Mus musculus, UniProt P63038); settings: co-precipitated protein Hspd1 (CH60_MOUSE)
T4 construct: endogenous in cells; host or cells: MLO-Y4
T4 sequence (P63038 27-573): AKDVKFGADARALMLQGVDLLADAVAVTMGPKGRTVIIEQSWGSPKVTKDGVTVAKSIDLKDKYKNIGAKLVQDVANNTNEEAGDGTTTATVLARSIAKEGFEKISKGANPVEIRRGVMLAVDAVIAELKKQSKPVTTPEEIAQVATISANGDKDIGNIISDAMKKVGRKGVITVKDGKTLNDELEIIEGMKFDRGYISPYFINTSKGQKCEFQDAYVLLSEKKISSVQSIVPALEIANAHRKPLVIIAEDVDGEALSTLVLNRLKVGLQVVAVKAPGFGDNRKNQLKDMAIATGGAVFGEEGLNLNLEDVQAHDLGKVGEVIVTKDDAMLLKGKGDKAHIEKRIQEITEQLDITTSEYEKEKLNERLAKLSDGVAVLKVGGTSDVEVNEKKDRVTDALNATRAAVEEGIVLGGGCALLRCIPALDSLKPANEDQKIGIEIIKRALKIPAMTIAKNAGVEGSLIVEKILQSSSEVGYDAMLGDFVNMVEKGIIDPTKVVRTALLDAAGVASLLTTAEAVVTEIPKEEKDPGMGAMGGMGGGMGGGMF
Description: as §1, §2, §3

[5] = target: T5, MLO-Y4 cell surface proteins (Mus musculus, UniProt P97360); settings: co-precipitated protein Etv6 (ETV6_MOUSE)
T5 construct: endogenous in cells; host or cells: MLO-Y4
T5 sequence (P97360 1-485): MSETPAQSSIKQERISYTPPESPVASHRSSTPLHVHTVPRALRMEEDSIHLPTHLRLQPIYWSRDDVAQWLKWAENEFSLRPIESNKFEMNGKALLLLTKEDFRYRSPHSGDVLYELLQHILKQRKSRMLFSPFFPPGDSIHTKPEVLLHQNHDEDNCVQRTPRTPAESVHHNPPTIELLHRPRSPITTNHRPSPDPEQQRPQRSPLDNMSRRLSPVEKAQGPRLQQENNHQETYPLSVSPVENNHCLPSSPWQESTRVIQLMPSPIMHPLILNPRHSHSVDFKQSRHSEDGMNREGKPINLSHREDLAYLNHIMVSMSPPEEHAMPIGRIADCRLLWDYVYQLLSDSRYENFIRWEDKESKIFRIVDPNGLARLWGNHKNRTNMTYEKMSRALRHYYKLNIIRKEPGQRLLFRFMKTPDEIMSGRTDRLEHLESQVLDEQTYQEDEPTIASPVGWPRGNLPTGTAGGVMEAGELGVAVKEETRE
Description: as §1, §2, §3

[6] = target: T6, MLO-Y4 cell surface proteins (Mus musculus, UniProt Q9WTP6); settings: co-precipitated protein Ak2 (KAD2_MOUSE)
T6 construct: endogenous in cells; host or cells: MLO-Y4
Description: as §1, §2, §3

B1: irisin: secreted cleaved form of FNDC5; recombinant human/mouse irisin with C-terminal his tag produced in HEK293 cells (protein)
chain: DSPSAPVNVTVRHLKANSAVVSWDVLEDEVVIGFAISQQKKDVRMLRFIQEVNTTTRSCALWDLEEDTEYIVHVQAISIQGQSPASEPVLFKTPREAEKMASKNKDEVTMKE
modifications: left off: small tags and cut ends
notes: secreted cleaved form of FNDC5; recombinant human/mouse irisin with C-terminal his tag produced in HEK293 cells
TMT signal-to-noise ratio [1]: 119.978
irisin/adipsin TMT signal-to-noise ratio [1]: 0.438
TMT signal-to-noise ratio [2]: 0
irisin/adipsin TMT signal-to-noise ratio [2]: 0.000
TMT signal-to-noise ratio [3]: 169.775
irisin/adipsin TMT signal-to-noise ratio [3]: 0.566
TMT signal-to-noise ratio [4]: 2002.08
irisin/adipsin TMT signal-to-noise ratio [4]: 0.470
TMT signal-to-noise ratio [5]: 74.6472
irisin/adipsin TMT signal-to-noise ratio [5]: 0.544
TMT signal-to-noise ratio [6]: 61.9776
irisin/adipsin TMT signal-to-noise ratio [6]: 0.546
